Source: article PMC5445624
Blank lines part the entries; values can stand above or below the substance they belong to.

Columns and labels:
[1] = target: MBP-RNF4(WT) (UniProt O88846); experiment: GST pulldown; conditions: for ratio to parent: parent: est. 1.0, read off a plot
[2] = target: GST-ETV4(1-335)(WT) SUMOylated with wild-type SUMO3, P28322;P55854; experiment: GST pulldown; conditions: printed grade '++' (legend: ≥50% of RNF4(WT)); parent: +++ (≥80%)

- response (% bound relative to input) ([1]; ETV4 co-expressed in bacteria with SUMO3(K11R), lane 5, parent: 49): 3
- ratio to parent ([1]; ETV4 co-expressed with SUMO3(K11R)): 0.05
Substance: GST-ETV4(1-480)(WT) modified with SUMO3(K11R) (from UniProt P28322;P55854) K96R; K222R; K256R; K328R

- response (% bound relative to input) ([1]; ETV4 co-expressed in bacteria with SUMO3(WT), lane 1, parent: 60): 12
- ratio to parent ([1]; ETV4 co-expressed with SUMO3(WT)): 0.03
Substance: GST-ETV4(1-480)(WT) modified with SUMO3(WT) (from UniProt P28322;P55854) K96R; K222R; K256R; K328R

- percent of parent (% of RNF4(WT)) [2]: 50
Substance: MBP-RNF4(WT) (from UniProt O88846) SIM1,2mut
